Assay [1] has as its target T1, human CD40 on the cell surface (CD40 transfected HEK293 cells, Ramos human B cells, other CD40-bearing cells) (human, UniProt P25942 21-277).
T1 construct: the transfected construct is not described further
In words: flow cytometry, Alexa 647 conjugate on CD40 transfected 293 cells.

Assay [2] concerns the target T2, CD40-Fc protein (Sino-Biological), biotinylated (Homo sapiens (Human), UniProt P25942 21-193, biotinylated in the lab (sites not given) when used for capture).
T2 construct: Bought; also called CD40-biotin; not shown: Fc of the purchased CD40-Fc
The assay is described as follows: Octet (BLI); G4P-PDL1 held on captured hPDL1-His, then CD40-Fc 100nM. A general note: BLI is a label-free optical method that tracks binding on a fibre tip over time.

T2 sequence (P25942 21-193): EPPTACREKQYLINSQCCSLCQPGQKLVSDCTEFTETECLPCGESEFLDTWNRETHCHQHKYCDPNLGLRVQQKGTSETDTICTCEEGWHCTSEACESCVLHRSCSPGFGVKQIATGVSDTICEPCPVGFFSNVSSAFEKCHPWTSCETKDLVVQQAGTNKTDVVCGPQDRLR
T1 sequence (P25942 21-277 limits assumed): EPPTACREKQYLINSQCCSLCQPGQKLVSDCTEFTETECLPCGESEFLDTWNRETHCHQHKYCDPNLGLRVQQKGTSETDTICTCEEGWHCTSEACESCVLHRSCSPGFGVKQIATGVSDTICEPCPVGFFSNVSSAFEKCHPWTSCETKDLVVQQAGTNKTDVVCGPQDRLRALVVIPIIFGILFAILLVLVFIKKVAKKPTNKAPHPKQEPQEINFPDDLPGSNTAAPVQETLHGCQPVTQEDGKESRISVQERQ

B1: anti-PDL1 (MEDI4736) in human IgG4 isotype (antibody, V domains shown)
VH: EVQLVESGGGLVQPGGSLRLSCAASGFTFSRYWMSWVRQAPGKGLEWVANIKQDGSEKYYVDSVKGRFTISRDNAKNSLYLQMNSLRAEDTAVYYCAREGGWFGELAFDYWGQGTLVTVSS
VL: EIVLTQSPGTLSLSPGERATLSCRASQRVSSSYLAWYQQKPGQAPRLLIYDASSRATGIPDRFSGSGSGTDFTLTISRLEPEDFAVYYCQQYGSLPWTFGQGTKVEIKR
notes: Human IgG4 (228P) format of MEDI4736; also called MEDI4736 IgG4; anti-PD-L1 (MED4736)
On to B1, for which the binding result in assay [1] is “no binding (tested: about 4x10^4 pM)”; in assay [2] it was “no binding (tested: 100 nM CD40-Fc)”.

Source of the values: patent US20190241659A1 (AstraZeneca / MedImmune, published 2019).
